Reference: patent US11959134, “Methods of determining nucleic acid structural information” (Bionano Genomics, Inc.)

Key:
[1] = biological target: T1, M.BseCI DNA adenine methyltransferase (UniProt P43423 P43423:1-579); assay: sequence-specific covalent labeling with Atto532AdoY cofactor seen in nanochannels; 285 nM enzyme, 10 mM Tris-HCl, 10 mM EDTA, 5 mM beta-mercaptoethanol, pH 7.4, 55 C, 5 h
Procedure: A solution (40 ul) of 2 uL T7 DNA (500 ng/ul), M.BseCI (285 nM) and Atto532AdoY (40 uM) in 10 mM Tris-HCl, 10 mM EDTA, and 5 mM β-mercaptoethanol, pH 7.4 were mixed with 4 uL NaOH (0.1M). The solution was incubated for 5 h at 55° C. Proteinase K (1 ul) was added and the solution incubated for 1 h at 37° C. DNA was ethanol precipitated and redissolved in 1×TE buffer (10 ul).
For DNA staining of the T7 DNA labeled in Example 5, above, a solution (50 ul) of DNA (10 ng/ul), YOYO-1 (500 nM) in 1× flow buffer was incubated for 4 h at 4° C. Subsequently, a freshly prepared solution (4 ul) of 4-nitrobenzoic alcohol (1.4 mM), Trolox (1.4 mM), protocatechuate-3,4-dioxygenase (0.36 uM), protocatechuic acid (50 ug) was mixed with 10 uL of the stained DNA (above) and was loaded onto an IrysChip™ and imaged using the Irys™ instrument. FIG. 4 represents an example of imaged, labeled T7 DNA molecules.

[2] = biological target: T1, M.BseCI DNA adenine methyltransferase; assay: labeling with Atto532AdoY, 22x enzyme excess over sites, 55 C, 5 h; labeled DNA assembled into single contig aligned to reference
Procedure: A solution (40 ul) of E. coli DNA (500 ng), M.BseCI (22× excess over DNA sites) and Atto532AdoY (40 uM) in 10 mM Tris-HCl, 10 mM EDTA, and 5 mM beta-mercaptoethanol, pH 7.4 were mixed with 4 uL NaOH (0.1M). The solution was incubated for 5 h at 55° C. Proteinase K (1 ul) was added and the solution incubated for 1 h at 37° C. The DNA was dialyzed against 1×TE buffer and stained with YOYO-1 to a final concentration of 3.5-5 ng/ul.
A freshly prepared solution (4 ul) of 4-nitrobenzoic alcohol (1.4 mM), Trolox (1.4 mM), protocatechuate-3,4-dioxygenase (0.36 uM), protocatechuic acid (50 ug) was mixed with stained E. coli DNA of Example 7, 1× flow buffer and Tris (25 mM) and NaCl (10 mM) were added. The sample was loaded onto an IrysChip™ and imaged using the Irys™ instrument.
The E. coli DNA of Examples 7 and 8 was assembled and compared to a reference genome. The labeled E. coli DNA assembled into a single contig (FIG. 5, right contig) and aligned to a reference contig sequence (FIG. 5, left contig).

T1 sequence (P43423 whole entry, one chain of several): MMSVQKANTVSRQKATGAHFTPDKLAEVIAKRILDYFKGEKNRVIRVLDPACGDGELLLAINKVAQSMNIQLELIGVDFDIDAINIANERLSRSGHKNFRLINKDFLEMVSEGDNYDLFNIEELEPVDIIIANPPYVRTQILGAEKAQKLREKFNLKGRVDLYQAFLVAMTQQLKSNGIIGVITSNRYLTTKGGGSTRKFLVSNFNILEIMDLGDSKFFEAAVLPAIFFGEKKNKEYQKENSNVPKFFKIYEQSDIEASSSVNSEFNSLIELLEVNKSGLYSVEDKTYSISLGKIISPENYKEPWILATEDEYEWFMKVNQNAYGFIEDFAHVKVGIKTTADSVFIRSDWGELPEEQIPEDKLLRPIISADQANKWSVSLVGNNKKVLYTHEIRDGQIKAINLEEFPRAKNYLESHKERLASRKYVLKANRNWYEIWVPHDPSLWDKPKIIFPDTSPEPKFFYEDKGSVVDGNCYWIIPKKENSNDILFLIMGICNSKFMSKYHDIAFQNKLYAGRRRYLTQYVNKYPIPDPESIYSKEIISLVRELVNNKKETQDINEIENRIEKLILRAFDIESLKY

Row | Binder | binding result [1] | binding result [2]
1 | T7 phage genomic DNA containing three M.BseCI sites (dsDNA) DNA 1: ATCGAT DNA 2: ATCGAT | binds | –
2 | E. coli genomic DNA containing M.BseCI sites (dsDNA) DNA 1: ATCGAT DNA 2: ATCGAT | – | binds
